{"source": "paper PMC6389991", "key": {"[1]": {"molecular_target": "PfHsp70-x-C (27–679) (P. falciparum)", "assay": "BLI; Octet K2, 25 °C; His-tagged PfHsp70-x-C loaded on Ni-NTA biosensors, ATS as analyte (1.563-6.25 µM); steady-state analysis, 1:1 model"}, "[2]": {"molecular_target": "PfHsp70-x-S (30–412) (P. falciparum)"}, "[3]": {"molecular_target": "PfHsp70-x-C (27–679) (P. falciparum)"}, "[4]": {"molecular_target": "PfHsp70-x-S (30–412) (P. falciparum)", "remark": "listed apart in the source"}, "[5]": {"molecular_target": "PfHsp70-x-C (27–679) (P. falciparum)", "remark": "listed apart in the source"}, "[6]": {"molecular_target": "PfHsp70-x-C (27–679) (P. falciparum)", "assay": "pull-down; PfHsp70-x-C cross-linked to coupling resin, increasing PFA0660w-C (1.4286-28.5714 µM), without ATP; band densities on SDS-PAGE, nonlinear regression"}, "[7]": {"molecular_target": "PfHsp70-x-C (27–679) (P. falciparum)", "assay": "pull-down; PfHsp70-x-C cross-linked to coupling resin, increasing PFA0660w-C (1.4286-28.5714 µM), with 1 mM ATP; band densities on SDS-PAGE, nonlinear regression"}}, "data": [{"substance": "acidic terminal segment (ATS) domain of PfEMP1 (PF08_0141) (domain or fragment)", "values": [{"measurement": "Kd", "setting": "[1]", "result": 180, "unit": "µM"}]}, {"substance": "PFA0660w-C (81–386) (domain or fragment)", "values": [{"measurement": "beta galactosidase refolding: recovered enzyme activity with PFA0660w-C and PfHsp70-x-S together", "setting": "[2]", "result": 34.7, "unit": "%"}, {"measurement": "beta galactosidase refolding: recovered enzyme activity with PFA0660w-C and PfHsp70-x-C together", "setting": "[3]", "result": 66.7, "unit": "%"}, {"measurement": "MDH aggregation suppression (absorbance at 360 nm, 48 °C): percent MDH aggregation with PFA0660w-C and PfHsp70-x-S together", "setting": "[4]", "result": 18.2, "unit": "%"}, {"measurement": "MDH aggregation suppression (absorbance at 360 nm, 48 °C): percent MDH aggregation with PFA0660w-C and PfHsp70-x-C together", "setting": "[5]", "result": 10.7, "unit": "%"}, {"measurement": "Kd", "setting": "[6]", "result": 5.58, "unit": "µM"}, {"measurement": "Kd", "setting": "[7]", "result": 0.781, "unit": "µM"}]}]}
